According to paper PMC2115787:
Read-outs that look alike come from different tables or passages of the source.

Tests used:
Test in all cases: light chain exchange into myosin
[1] = target: myosin from adult White Rock chicken pectoralis muscle (chicken) (UniProt P02609)
[2] = target: myosin from adult White Rock chicken pectoralis muscle (chicken) (UniProt P02609); remark: listed apart in the source
[3] = target: myosin from adult White Rock chicken pectoralis muscle (chicken) (UniProt P02609); remark: listed apart in the source
[4] = target: myosin from adult White Rock chicken pectoralis muscle (chicken) (UniProt P02609); remark: listed apart in the source

- percent exchange [1]: 49%
- percent exchange [2]: 84%
- percent exchange [3]: 26%
- percent exchange [4]: 7%
Substance: regulatory light chain LC2 singly labeled with fluorescein at Cys 125 (from UniProt P02609 1-168) (natural protein)
